The values that follow are results of earlier work, collected in PMC3957495.

By Kd is commonly meant the constant that tells how readily two partners part at equilibrium. One may read the Ki as a dissociation constant, usually derived from enzyme kinetics or from competition with a known ligand.

In data set [1] the target is CRF (UniProt P06850).
In data set [2] the target is CRF (UniProt P06850). This is another data set of the same source.
The target in data set [3] is Urocortin 1 (UniProt P55089).
Chain of Urocortin 1 (P55089 83-122): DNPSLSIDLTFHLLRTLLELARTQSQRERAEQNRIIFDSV

Chain of sCRF2a receptor (Q60748 20-411): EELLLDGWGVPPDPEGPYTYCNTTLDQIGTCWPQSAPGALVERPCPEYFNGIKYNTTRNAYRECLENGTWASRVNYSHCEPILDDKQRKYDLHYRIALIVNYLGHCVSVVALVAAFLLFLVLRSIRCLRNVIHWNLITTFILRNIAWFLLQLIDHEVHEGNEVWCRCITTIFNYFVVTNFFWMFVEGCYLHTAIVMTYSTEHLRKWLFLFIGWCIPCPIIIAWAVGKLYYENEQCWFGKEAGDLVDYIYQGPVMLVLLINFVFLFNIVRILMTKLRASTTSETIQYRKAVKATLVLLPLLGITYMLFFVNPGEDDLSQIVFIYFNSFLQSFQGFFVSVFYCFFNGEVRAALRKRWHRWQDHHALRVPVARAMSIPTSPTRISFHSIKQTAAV
Chain of CRF (P06850 154-194): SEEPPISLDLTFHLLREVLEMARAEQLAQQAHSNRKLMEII
Chain of CRF2a-tr (P47866 20-411): as the sequence (Q60748 20-411) above, with V10E, T19S, V100I, A146T, I168V, I221V, A241P, V253I, M254I, A349S counted along it

CRF2a-tr (from UniProt P47866): the Kd in data set [1] was 12.7 nM. With sCRF2a receptor (from UniProt Q60748), the Ki in data set [2] was 23 nM; in data set [3], 6.6 nM.
